One assay concerns the target CH3C.35.N153.bi. Description: SPR, TfR ECD captured, clone injected, steady state.
For assay [1], the target named is T1, human transferrin receptor protein 1 (TfR) (human, UniProt P02786 89-760, limits assumed).
T1 construct: also called human TfR; hTfR
In words: ELISA, TfR coated on plate, Fc-Fab fusion. On the technique in general: In an ELISA, binding on a coated surface is turned into a signal by an enzyme label.

Assay [2] concerns the target T1, human transferrin receptor protein 1 …. In words: selection from soft randomization libraries.

Changes are numbered by the printed parent chain.

B1: recombinant cyno TfR ectodomain (ECD), biotinylated (receptor)
chain: CKGVEPKTECERLAGTESPAREEPEEDFPAAPRLYWDDLKRKLSEKLDTTDFTSTIKLLNENLYVPREAGSQKDENLALYIENQFREFKLSKVWRDQHFVKIQVKDSAQNSVIIVDKNGGLVYLVENPGGYVAYSKAATVTGKLVHANFGTKKDFEDLDSPVNGSIVIVRAGKITFAEKVANAESLNAIGVLIYMDQTKFPIVKADLSFFGHAHLGTGDPYTPGFPSFNHTQFPPSQSSGLPNIPVQTISRAAAEKLFGNMEGDCPSDWKTDSTCKMVTSENKSVKLTVSNVLKETKILNIFGVIKGFVEPDHYVVVGAQRDAWGPGAAKSSVGTALLLKLAQMFSDMVLKDGFQPSRSIIFASWSAGDFGSVGATEWLEGYLSSLHLKAFTYINLDKAVLGTSNFKVSASPLLYTLIEKTMQDVKHPVTGRSLYQDSNWASKVEKLTLDNAAFPFLAYSGIPAVSFCFCEDTDYPYLGTTMDTYKELVERIPELNKVARAAAEVAGQFVIKLTHDTELNLDYERYNSQLLLFLRDLNQYRADVKEMGLSLQWLYSARGDFFRATSRLTTDFRNAEKRDKFVMKKLNDRVMRVEYYFLSPYVSPKESPFRHVFWGSGSHTLSALLESLKLRRQNNSAFNETLFRNQLALATWTIQGAANALSGDVWDIDNEF
One may read the Kd as the free concentration of one partner at which half of the binding sites on the other are occupied at equilibrium, for simple one-to-one binding. A high value points to a looser complex. As to B1, in the assay with CH3C.35.N153.bi, the affinity, expressed as Kd, was 3.3 µM. This lies in the single-digit micromolar range.

B2: Clone CH3C.3.2-1 (designed binder)
chain: APELLGGPSVFLFPPKPKDTLMISRTPEVTCVVVDVSHEDPEVKFNWYVDGVEVHNAKTKPREEQYNSTYRVVSVLTVLHQDWLNGKEYKCKVSNKALPAPIEKTISKAKGQPREPQVYTLPPSRDELTKNQVSLTCLVKGFYPSDIAVEWESLGHVWVNFKTTPPVLDSDGSFFLYSKLTVPKSTWQQGWVFSCSVMHEALHNHYTQKSLSLSPGK
notes: modified Fc polypeptide
Regarding B2, the binding result in assay [1] is reported as “binds”.

B3: Clone CH3C.21 (designed binder)
chain: B2 chain with H156L, N160G, F161Y
notes: modified Fc polypeptide
For B3, the binding result in assay [2] is recorded as “binds”.

B4: Clone CH3C.25 (designed binder)
chain: B2 chain with L154M, N160G, F161Y, P183D
notes: modified Fc polypeptide
Turning to B4, in assay [2], the binding result was “binds”.

B5: Clone CH3C.34 (designed binder)
chain: B2 chain with H156L, N160F, F161S
notes: modified Fc polypeptide
For the molecule B5, in assay [2], the binding result is “binds”.

Source of the values: patent publication US20210198640A1 (DENALI THERAPEUTICS, published 2021).
